Reference: US5780265, “Kunitz type plasma kallikrein inhibitors” (Genentech, Inc., dated 1998)
Like-named read-outs stand apart in the source and are kept apart here. Where no end group is shown, it is not given here.

How the values were obtained:
[1] = target: T1, Human plasma kallikrein (human, UniProt P03952); test: enzyme inhibition of plasma kallikrein (apparent Ki*)
[2] = target: T2, Human Factor XIa (human, UniProt P03951); test: enzyme inhibition of FXIa, chromogenic substrate, fit to the tight-binding equation (apparent Ki*)
[3] = target: T1, Human plasma kallikrein; test: enzyme inhibition of plasma kallikrein, substrate S2302, fit to the tight-binding equation (apparent Ki*)
[4] = target: T1, Human plasma kallikrein; test: as above; remark: listed apart in the source
Method: Determination of the apparent equilibrium dissociation constants of selected Kunitz domains with plasma kallikrein and FXIa. The inhibitory activity is expressed as the fractional activity (inhibited rate/uninhibited rate) at varying inhibitor concentrations. The apparent equilibrium dissociation constants were determined by nonlinear regression analysis of the data to equation 1.
Plots of the fractional rate versus inhibitor concentration were fit by nonlinear regression analysis to Equation 1 to determine apparent equilibrium dissociation constants (K_i^*):

[5] = target: T2, Human Factor XIa; test: enzyme inhibition of FXIa, chromogenic substrate, fit to the tight-binding equation (apparent Ki*); remark: listed apart in the source
[6] = target: T1, Human plasma kallikrein; test: enzyme inhibition of plasma kallikrein (apparent Ki*), against APPI
[7] = target: T1, Human plasma kallikrein; test: enzyme inhibition of plasma kallikrein (apparent Ki*), against BPTI

Binder | Ki [2] | Ki [3] | Ki [4] | Ki [5] | also measured
KALI-D (designed binder) VREVCSEQAEDGHCRAAHPRWYFDVTEGKCAPFFYGGCGGNRNNFDTEEYCAAVCGSA | 5.7 nM | 0.025 nM | – | – | Ki [1]: < 0.05 nM
KALI-46 (designed binder) VREVCSEQAEEGRCRASILRWYFDVTEGKCAPFFYGGCGGNRNNFDTEEYCAAVCGSA | – | – | 0.175 nM | 0.3 nM | –
KALI-EY (designed binder) VREVCSEQAEEGHCRAAHPRWYFDVTEGKCAPFYYGGCGGNRNNFDTEEYCAAVCGSA | 7.3 nM | 0.98 nM | – | – | –
KALI-8 (designed binder) VREVCSEQAELGHCRAAIPRWYFDVTEGKCAPFFYGGCGGNRNNFDTEEYCAAVCGSA | – | – | 0.074 nM | 0.3 nM | –
KALI-DV (designed binder) VREVCSEQAEDGHCRAAHPRWYFDVTEGKCAPFVYGGCGGNRNNFDTEEYCAAVCGSA | 1.3 nM | 0.043 nM | – | – | Ki [1]: < 0.05 nM
KALI-48 (designed binder) VREVCSEQAETGHCRAAIPRWYFDVTEGKCAPFFYGGCGGNRNNFDTEEYCAAVCGSA | – | – | 0.209 nM | 0.7 nM | –
KALI-PY (designed binder, not fully specified (bridges); cysteine pairing not given here) VREVCSEQAEPGHCRAAHPRWYFDVTEGKCAPFYYGGCGGNRNNFDTEEYCAAVCGSA | 11.7 nM | 0.136 nM | – | – | –
KALI-P (designed binder) VREVCSEQAEPGHCRAAHPRWYFDVTEGKCAPFFYGGCGGNRNNFDTEEYCAAVCGSA | 13.8 nM | 0.2 nM | – | – | –
KALI-DY (designed binder) VREVCSEQAEDGHCRAAHPRWYFDVTEGKCAPFYYGGCGGNRNNFDTEEYCAAVCGSA | 8.2 nM | 0.015 nM | – | – | fold better inhibition than APPI [6]: > 10000 fold; Ki [1]: < 0.05 nM; fold more potent than BPTI [7]: 3000 fold
KALI-EV (designed binder) VREVCSEQAEEGHCRAAHPRWYFDVTEGKCAPFVYGGCGGNRNNFDTEEYCAAVCGSA | – | 0.117 nM | – | – | –
KALI-E (designed binder) VREVCSEQAEEGHCRAAHPRWYFDVTEGKCAPFFYGGCGGNRNNFDTEEYCAAVCGSA | 4.5 nM | 0.103 nM | – | – | –
KALI-30 (designed binder) VREVCSEQAEEGHCRAAILRWYFDVTEGKCAPFFYGGCGGNRNNFDTEEYCAAVCGSA | – | – | 0.258 nM | 0.4 nM | –
KALI-13 (designed binder) VREVCSEQAESGHCRAAIPRWYFDVTEGKCAPFFYGGCGGNRNNFDTEEYCAAVCGSA | – | – | 0.203 nM | 1.4 nM | –
KALI-PV (designed binder) VREVCSEQAEPGHCRAAHPRWYFDVTEGKCAPFVYGGCGGNRNNFDTEEYCAAVCGSA | 4.1 nM | 0.166 nM | – | – | –
